Measurements taken from publication PMC8460140, “Identification of BiP as a CB1 Receptor-Interacting Protein That Fine-Tunes Cannabinoid Signaling in the Mouse Brain” (The Journal of Neuroscience, 2021).

Biological target: T1, His6-tagged BiP-IR (amino acids 497-654), recombinant (UniProt P11021 497-654)
T1 construct: BiP (GRP78, Hspa5), amino acids 497-654; pBH4 vector; also called unlabeled BiP-IR
T1 sequence (looked up): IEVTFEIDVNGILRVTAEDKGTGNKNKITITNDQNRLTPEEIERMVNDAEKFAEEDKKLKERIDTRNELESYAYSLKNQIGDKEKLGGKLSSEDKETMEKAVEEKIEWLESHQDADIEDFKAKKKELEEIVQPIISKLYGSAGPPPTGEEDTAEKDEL
Test: fluorescence polarisation; saturation binding: constant 100 nM 5-IAF-CB1R-CTD, increasing amounts of unlabeled BiP or BiP-IR
Settings: both partners purified

- binding result: binds
B1: His6-tagged CB1R-CTD (amino acids 400-472), labeled with 5-IAF (domain or fragment, UniProt P21554 400-472, looked up)
chain: RSKDLRHAFRSMFPSCEGTAQPLDNSMGDSDCLHKHANNAASVHRAAESCIKSTVKIAKVTMSVSTDTSAEAL
modifications: labeled with 5-(iodoacetamido)fluorescein (5-IAF); labeled residue not stated
notes: pBH4 vector; also called 5-IAF-CB1R-CTD; 5-IAF-labeled CB1R-CTD
